doi:10.1101/2022.03.06.483192
“And” between values parts separate entries of the source, which are not always exact repeats. Equal values may be shown once.

What was measured:
MBP-SYCP1αNcore = MBP-SYCP1αNcore (UniProt Q15431); test: SEC-MALS
SYCP1αNcore [1] = target: SYCP1αNcore (UniProt Q15431); test: SEC-MALS
SYCP1αNcore [2] = target: SYCP1αNcore (UniProt Q15431); test: ITC
SYCP1αN = SYCP1αN (UniProt Q15431); test: SEC-MALS
Chain of SYCP1αN (Q15431 101-362): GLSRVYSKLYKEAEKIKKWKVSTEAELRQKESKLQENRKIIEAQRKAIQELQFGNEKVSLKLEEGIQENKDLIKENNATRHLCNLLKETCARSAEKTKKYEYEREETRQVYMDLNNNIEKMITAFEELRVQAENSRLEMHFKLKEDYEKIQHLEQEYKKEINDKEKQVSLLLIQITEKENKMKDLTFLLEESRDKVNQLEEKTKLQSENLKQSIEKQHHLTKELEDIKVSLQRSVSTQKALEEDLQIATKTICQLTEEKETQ

Chain of SYCP1αNcore (Q15431 206-362): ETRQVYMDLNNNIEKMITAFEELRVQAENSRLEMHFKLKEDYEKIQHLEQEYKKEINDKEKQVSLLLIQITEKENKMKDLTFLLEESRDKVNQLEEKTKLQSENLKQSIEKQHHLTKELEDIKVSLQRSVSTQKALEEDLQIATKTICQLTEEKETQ
Chain of MBP-SYCP1αNcore (Q15431 206-362): as above

stoichiometry N (SYCP1 chains per SYCE3 chain) (MBP-SYCP1αNcore)	stoichiometry N (SYCP1 chains per SYCE3 chain) (SYCP1αNcore [1])	KD, single replicate (SYCP1αNcore [2])	Kd (SYCP1αNcore [2]) [nM]	stoichiometry N (SYCP1 chains per SYCE3 chain) (SYCP1αN)	Substance
2	2				MBP-SYCE3 (from UniProt A1L190 11-81) (natural protein)
	2				SYCE3 P53Q (from UniProt A1L190 11-81) (natural protein)
	2	16 nM and 10 nM and 22 nM	16	2	SYCE3 W41E Y44E (from UniProt A1L190 11-81) (natural protein)
